B1: Speckle-type POZ protein (Homo sapiens), O43791 (parent)
chain: MSRVPSPPPPAEMSSGPVAESWCYTQIKVVKFSYMWTINNFSFCREEMGEVIKSSTFSSGANDKLKWCLRVNPKGLDEESKDYLSLYLLLVSCPKSEVRAKFKFSILNAKGEETKAMESQRAYRFVQGKDWGFKKFIRRDFLLDEANGLLPDDKLTLFCEVSVVQDSVNISGQNTMNMVKVPECRLADELGGLWENSRFTDCCLCVAGQEFQAHKAILAARSPVFSAMFEHEMEESKKNRVEINDVEPEVFKEMMCFIYTGKAPNLDKMADDLLAAADKYALERLKVMCEDALCSNLSVENAAEILILADLHSADQLKTQAVDFINYHASDVLETSGWKSMVVSHPHLVAEAYRSLASAQCPFLGPPRKRLKQS
partner: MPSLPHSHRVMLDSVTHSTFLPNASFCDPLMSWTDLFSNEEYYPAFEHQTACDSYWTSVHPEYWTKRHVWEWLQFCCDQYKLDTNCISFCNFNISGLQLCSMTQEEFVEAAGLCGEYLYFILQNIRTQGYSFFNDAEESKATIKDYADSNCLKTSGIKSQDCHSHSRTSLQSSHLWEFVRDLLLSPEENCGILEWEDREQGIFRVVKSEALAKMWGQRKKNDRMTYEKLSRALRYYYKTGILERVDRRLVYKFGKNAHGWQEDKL
B2: Speckle-type POZ protein (Homo sapiens), O43791 (parent)
chain: B1 chain
partner: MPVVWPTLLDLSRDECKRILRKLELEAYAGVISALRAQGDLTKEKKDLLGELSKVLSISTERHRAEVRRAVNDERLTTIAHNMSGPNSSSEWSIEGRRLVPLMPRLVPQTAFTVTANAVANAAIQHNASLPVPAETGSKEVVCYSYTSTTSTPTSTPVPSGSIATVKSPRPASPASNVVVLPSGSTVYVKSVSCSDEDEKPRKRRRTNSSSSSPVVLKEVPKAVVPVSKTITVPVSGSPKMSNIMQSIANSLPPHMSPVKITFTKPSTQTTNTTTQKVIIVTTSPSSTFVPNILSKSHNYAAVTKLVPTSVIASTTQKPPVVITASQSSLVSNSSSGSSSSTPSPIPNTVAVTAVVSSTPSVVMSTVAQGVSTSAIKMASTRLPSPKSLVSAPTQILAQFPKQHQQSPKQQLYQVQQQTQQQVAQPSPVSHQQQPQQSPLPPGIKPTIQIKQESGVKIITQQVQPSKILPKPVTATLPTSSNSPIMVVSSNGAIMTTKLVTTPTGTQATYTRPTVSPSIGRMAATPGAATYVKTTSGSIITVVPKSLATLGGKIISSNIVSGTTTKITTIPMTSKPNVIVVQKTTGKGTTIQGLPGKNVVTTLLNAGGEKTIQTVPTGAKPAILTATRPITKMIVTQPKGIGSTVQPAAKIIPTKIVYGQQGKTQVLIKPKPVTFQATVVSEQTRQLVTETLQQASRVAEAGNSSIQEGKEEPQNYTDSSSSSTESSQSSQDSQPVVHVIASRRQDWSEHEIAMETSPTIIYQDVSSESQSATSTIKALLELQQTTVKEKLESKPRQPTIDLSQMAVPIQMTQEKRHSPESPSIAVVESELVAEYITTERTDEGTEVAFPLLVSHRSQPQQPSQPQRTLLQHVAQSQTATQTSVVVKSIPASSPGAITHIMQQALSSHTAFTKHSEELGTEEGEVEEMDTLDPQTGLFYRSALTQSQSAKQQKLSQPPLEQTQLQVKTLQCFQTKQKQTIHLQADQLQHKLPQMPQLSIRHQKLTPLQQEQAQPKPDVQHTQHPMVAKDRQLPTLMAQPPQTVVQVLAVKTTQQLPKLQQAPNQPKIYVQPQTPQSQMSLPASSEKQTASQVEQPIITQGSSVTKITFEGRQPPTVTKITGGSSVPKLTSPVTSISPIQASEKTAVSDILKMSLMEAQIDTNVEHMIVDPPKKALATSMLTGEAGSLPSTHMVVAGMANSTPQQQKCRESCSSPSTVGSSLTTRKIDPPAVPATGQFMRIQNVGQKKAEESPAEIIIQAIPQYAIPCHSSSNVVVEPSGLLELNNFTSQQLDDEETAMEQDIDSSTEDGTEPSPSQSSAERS
B3: Speckle-type POZ protein (Homo sapiens), O43791 (parent)
chain: B1 chain
partner: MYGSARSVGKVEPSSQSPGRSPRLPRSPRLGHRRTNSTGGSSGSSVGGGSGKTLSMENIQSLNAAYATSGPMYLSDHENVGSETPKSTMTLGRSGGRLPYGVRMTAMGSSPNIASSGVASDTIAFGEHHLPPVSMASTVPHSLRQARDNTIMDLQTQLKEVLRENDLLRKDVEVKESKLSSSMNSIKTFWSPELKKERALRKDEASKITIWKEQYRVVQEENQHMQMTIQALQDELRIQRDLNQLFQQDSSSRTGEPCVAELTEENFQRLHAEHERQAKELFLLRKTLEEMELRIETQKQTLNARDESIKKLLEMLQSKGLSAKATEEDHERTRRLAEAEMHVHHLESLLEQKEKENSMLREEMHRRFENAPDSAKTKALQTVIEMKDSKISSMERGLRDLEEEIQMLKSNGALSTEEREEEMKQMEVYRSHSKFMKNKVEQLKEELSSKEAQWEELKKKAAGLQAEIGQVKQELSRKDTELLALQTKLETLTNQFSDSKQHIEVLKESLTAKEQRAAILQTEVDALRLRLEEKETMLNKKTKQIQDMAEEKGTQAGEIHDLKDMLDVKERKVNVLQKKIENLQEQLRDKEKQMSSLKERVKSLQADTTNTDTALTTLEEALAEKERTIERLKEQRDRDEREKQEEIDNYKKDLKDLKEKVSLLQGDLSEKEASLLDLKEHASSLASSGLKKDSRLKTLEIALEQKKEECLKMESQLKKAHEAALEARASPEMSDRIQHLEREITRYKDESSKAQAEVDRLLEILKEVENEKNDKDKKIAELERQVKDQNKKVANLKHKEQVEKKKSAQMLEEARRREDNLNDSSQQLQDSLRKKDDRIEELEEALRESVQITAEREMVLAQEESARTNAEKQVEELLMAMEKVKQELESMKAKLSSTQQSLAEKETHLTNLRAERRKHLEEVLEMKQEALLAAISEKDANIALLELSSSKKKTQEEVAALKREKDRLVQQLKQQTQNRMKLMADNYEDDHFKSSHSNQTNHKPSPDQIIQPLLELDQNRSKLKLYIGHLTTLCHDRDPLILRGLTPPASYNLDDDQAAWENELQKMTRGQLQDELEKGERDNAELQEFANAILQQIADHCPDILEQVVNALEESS
B4: Speckle-type POZ protein (Homo sapiens), O43791 (parent)
chain: B1 chain
partner: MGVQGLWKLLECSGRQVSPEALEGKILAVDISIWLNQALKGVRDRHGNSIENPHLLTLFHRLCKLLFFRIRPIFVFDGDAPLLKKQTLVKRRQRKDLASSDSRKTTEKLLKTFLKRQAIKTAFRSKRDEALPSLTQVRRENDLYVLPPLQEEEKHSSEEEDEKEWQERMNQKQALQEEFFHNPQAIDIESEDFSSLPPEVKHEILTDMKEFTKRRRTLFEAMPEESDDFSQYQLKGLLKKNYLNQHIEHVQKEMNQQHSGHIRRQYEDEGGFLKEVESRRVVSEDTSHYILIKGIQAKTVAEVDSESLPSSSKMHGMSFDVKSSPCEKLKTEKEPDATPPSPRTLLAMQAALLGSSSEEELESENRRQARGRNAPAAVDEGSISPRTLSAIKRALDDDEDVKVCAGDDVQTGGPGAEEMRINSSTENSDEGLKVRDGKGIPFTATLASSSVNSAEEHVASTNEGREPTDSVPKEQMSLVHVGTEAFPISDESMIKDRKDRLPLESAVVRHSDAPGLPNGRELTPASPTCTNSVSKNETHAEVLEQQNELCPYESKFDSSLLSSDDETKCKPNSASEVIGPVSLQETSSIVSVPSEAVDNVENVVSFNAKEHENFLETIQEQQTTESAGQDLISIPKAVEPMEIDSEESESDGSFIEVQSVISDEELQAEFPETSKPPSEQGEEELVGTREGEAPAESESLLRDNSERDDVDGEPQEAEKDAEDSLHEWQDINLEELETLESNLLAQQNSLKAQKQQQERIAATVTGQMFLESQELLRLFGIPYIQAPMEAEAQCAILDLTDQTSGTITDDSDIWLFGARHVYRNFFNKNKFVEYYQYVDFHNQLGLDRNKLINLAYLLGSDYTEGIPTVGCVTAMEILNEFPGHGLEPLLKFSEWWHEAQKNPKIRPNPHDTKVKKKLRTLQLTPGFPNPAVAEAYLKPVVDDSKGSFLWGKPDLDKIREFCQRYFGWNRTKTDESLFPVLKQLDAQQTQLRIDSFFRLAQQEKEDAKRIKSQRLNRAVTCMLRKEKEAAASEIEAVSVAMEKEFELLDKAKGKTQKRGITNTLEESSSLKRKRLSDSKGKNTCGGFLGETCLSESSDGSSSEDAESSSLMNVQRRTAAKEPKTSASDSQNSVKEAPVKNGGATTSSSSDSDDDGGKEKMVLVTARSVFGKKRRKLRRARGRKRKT

Variants of: B1
Conditions: with elf5_human ELF5, Q9UKW6

Question: Y87C was tested. Which “effect of a mutation on the interaction” value did it give?
Answer: with no effect

Variants of: B1
Conditions: with elf5_human ELF5, Q9UKW6
Remark: another data set of the same source

Question: With F133V as the variant, how does the “effect of a mutation on the interaction” value read?
Answer: with no effect

Variants of: B2
Conditions: with emsy_human EMSY

Question: With F102C as the variant, how does the “effect of a mutation on the interaction” value read?
Answer: with no effect

Variants of: B2
Conditions: with emsy_human EMSY
Remark: another data set of the same source

Question: How did the “effect of a mutation on the interaction” value turn out when F133L was run?
Answer: with no effect

Variants of: B2
Conditions: with emsy_human EMSY
Remark: another data set of the same source

Question: How did the “effect of a mutation on the interaction” value turn out when Y87C was run?
Answer: with no effect

Variants of: B2
Conditions: with emsy_human EMSY
Remark: another data set of the same source

Question: Which “effect of a mutation on the interaction” value does the source give for F133V here?
Answer: with no effect

Variants of: B3
Conditions: with rb6i2_human ERC1, Q8IUD2

Question: For F102C, which “effect of a mutation on the interaction” value is on record?
Answer: with no effect

Variants of: B3
Conditions: with rb6i2_human ERC1, Q8IUD2
Remark: another data set of the same source

Question: For F133L, which “effect of a mutation on the interaction” value is on record?
Answer: with no effect

Variants of: B3
Conditions: with rb6i2_human ERC1, Q8IUD2
Remark: another data set of the same source

Question: For Y87C, which “effect of a mutation on the interaction” value is on record?
Answer: with no effect

Variants of: B3
Conditions: with rb6i2_human ERC1, Q8IUD2
Remark: another data set of the same source

Question: Which “effect of a mutation on the interaction” value does the source give for F133V here?
Answer: with no effect

Variants of: B4
Conditions: with ercc5_human ERCC5, P28715

Question: Which “effect of a mutation on the interaction” value does the source give for F102C here?
Answer: with no effect

Variants of: B4
Conditions: with ercc5_human ERCC5, P28715
Remark: another data set of the same source

Question: F133L was tested. Which “effect of a mutation on the interaction” value did it give?
Answer: with no effect

— IntAct's records for PubMed 35512704
